# Results from article PMC11770808, “Interplay between conformational dynamics and substrate binding regulates enzymatic activity: a single-molecule FRET study” (Chemical Science, 2025).
# Tested on: T1, Nc1ncnc2c1ncn2[C@@H]1O[C@H](COP(=O)(O)OP(=O)(O)O)[C@@H](O)[C@H]1O
# T1 construct: purified recombinant, details only in ESI
# Test: coupled assay (hexokinase / glucose-6-phosphate dehydrogenase), initial velocities fitted to Michaelis-Menten
# Assay type: biochemical, Escherichia coli
# Details: backward reaction, 0 M urea, dye-labelled enzyme (A73C/V142C background inferred), 50 mM Tris-HCl pH 8.0, 100 mM KCl, 10 mM MgCl2
substance,measurement,value
"adenylate kinase (AK), wild-type (WT) (Escherichia coli K-12; A73C/V142C)",Km,1340(±98) µM
